{
  "source": "paper doi:10.1101/2024.09.12.612748",
  "about": "“Analysis of polyclonal and monoclonal antibody to the influenza virus nucleoprotein in different oligomeric states” (bioRxiv, 2024)",
  "binders": {"B1": {"name": "anti-NP mouse monoclonal antibody HB65 (antibody, V domains shown)", "VH": "EVKLVESGGALVNPGGSLKLSCAASGFIFSSYAMSWIRQTPEKRLEWVASTSGGGTTYYLDSVRGRFTISRDNARRILYLQMTSLRSEDTAIYFCGRDGNWFTSWGQGTLVTVSI", "VL": "NIVMTQSPKSMSMSVGERVTLTCKASENVVTYVSWYQQKPEQSPKLLIYGASNRYTGVPDRFTGSGSATDFTLTISSVQAEDLADYHCGQGYSYPYTFGGGTKLEIK", "notes": "also called mAb HB65; IgG HB65; copies: 2 + 2"}},
  "key": {"[1]": {"biological_target": "T1, recombinant NP of influenza A/PR/8/34 (H1N1) purified from bacteria (Influenza A virus (strain A/Puerto …, UniProt P03466))", "T1 construct": "source: E. coli Rosetta 2 (DE3), purified (His GraviTrap TALON)", "experiment": "immunoblot", "settings": "both partners purified"}, "[2]": {"biological_target": "T2, NP in H1N1 viral lysate (A/Puerto Rico/8/34) (Influenza A virus (strain A/Puerto …, UniProt P03466))", "T2 construct": "also called viral NP; NP from lysed influenza virus", "experiment": "immunoblot", "settings": "one partner purified"}, "[3]": {"biological_target": "T3, recombinant nucleoprotein (NP) from influenza A/Brisbane/10/2007 (H3N2) (Influenza A virus A/Brisbane/10/2007 …)", "T3 construct": "also called rNP; rNP-A", "experiment": "BLI; Octet Red 96; […] (AMC) […] (6.25–200 nM), 1X PBS, association 300 s, dissociation 3,600 s, global 1:1 fit", "settings": "both partners purified"}},
  "data": [
    {"binder": "B1", "values": [
      {"measurement": "binding result", "setting": "[1]", "result": "binds"},
      {"measurement": "binding result", "setting": "[2]", "result": "binds"},
      {"measurement": "Kd", "setting": "[3]", "result": "120 ± 21", "unit": "nM"}
    ]}
  ]
}
